Target: T1, TNFR1 (Homo sapiens, UniProt P19438)
T1 chain: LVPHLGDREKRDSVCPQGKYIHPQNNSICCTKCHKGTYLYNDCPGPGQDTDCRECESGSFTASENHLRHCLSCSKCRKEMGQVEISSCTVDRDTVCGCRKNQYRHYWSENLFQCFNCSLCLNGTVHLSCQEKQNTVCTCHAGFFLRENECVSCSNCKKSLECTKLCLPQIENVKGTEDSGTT
Experiment: SPR

B1: Atrosimab (antibody)
chain 1: HVQLVQSGAEVKKPGSSVKVSCKASGYTFTDFYINWVRQAPGQGLEWIGEIVPSQGEAKYNDKFKARVTITADKSTSTAYMELSSLRSEDTAVYYCARWDFLDYWGQGTTVTVSSGTGGGSGPSVFLFPPKPKDTLMISRTPEVTCVVVDVSHEDPEVKFNWYVDGVEVHNAKTKPREEQYNSTYRVVSVLTVLHQDWLNGKEYKCKVSNKGLPSSIEKTISKAKGQPREPSVFIFPPSDEQLKSGTASVVCLVNNFYPRDIAVEWEVDNALQSGNSQESVTEQDSKDSTYSLSSTLTLSKADYEKHKVYSCSVMHEALHNHYTQKSFNRGEC
chain 2: DVQMTQSPSSLSASVGDRVTITCRSSQSLLHSNGNTYLHWYQQKPGKAPKLLIYTVSNRFSGVPSRFSGSGSGTDFTLTISSLQPEDFATYYCSQSTHVPYTFGGGTKVEIKGTGGGSGPSVFLFPPKPKDTLMISRTPEVTCVVVDVSHEDPEVKFNWYVDGVEVHNAKTKPREEQYNSTYRVVSVLTVLHQDWLNGKEYKCKVSNKGLPSSIEKTISKAKGQPREPSVFPLAPSSKSTSGGTAALGCLVKDYFPSDIAVEWESGALTSGVHTFPAVLQSSGLYSLSSVVTVPSSSLGTQTYSCSVMHEALHNHYTQKSVEPKSC
Kd: 5.01 nM

— paper PMC8294390 (2021)
